This note sets out measurements from publication PMC3044595.

This experiment concerns the target BclA N-terminal 35 amino acids fused to eGFP (Bacillus anthracis) (UniProt Q81JD7). As to the kind of experiment: FRET or BRET.

Substance “BxpB-mCherry fusion (from UniProt S5W424 1-167) (natural protein)” registered a fold decrease of the eGFP signal (FRET), against BclA NTD-eGFP alone of 2.1 fold and a percent of FRET positive spores of 14.8%.
